Laboratory results reported in paper PMC6899756, “Identification of amino acid residues of nerve growth factor important for neurite outgrowth in human dorsal root ganglion neurons” (The European Journal of Neuroscience, 2019).

Columns and labels:
[1] = target: T1, tropomyosin-related kinase A (TrkA) receptor (human, UniProt P04629-2 33-790, phosphotyrosine at 490 (Y490) and at 785 (Y785) after treatment of the cells with NGF); experiment: cell-based or functional assay
[2] = target: T1, tropomyosin-related kinase A (TrkA) …; experiment: cell-based or functional assay; remark: listed apart in the source

T1 sequence (P04629 other isoform, or with tags, fused parts or gaps): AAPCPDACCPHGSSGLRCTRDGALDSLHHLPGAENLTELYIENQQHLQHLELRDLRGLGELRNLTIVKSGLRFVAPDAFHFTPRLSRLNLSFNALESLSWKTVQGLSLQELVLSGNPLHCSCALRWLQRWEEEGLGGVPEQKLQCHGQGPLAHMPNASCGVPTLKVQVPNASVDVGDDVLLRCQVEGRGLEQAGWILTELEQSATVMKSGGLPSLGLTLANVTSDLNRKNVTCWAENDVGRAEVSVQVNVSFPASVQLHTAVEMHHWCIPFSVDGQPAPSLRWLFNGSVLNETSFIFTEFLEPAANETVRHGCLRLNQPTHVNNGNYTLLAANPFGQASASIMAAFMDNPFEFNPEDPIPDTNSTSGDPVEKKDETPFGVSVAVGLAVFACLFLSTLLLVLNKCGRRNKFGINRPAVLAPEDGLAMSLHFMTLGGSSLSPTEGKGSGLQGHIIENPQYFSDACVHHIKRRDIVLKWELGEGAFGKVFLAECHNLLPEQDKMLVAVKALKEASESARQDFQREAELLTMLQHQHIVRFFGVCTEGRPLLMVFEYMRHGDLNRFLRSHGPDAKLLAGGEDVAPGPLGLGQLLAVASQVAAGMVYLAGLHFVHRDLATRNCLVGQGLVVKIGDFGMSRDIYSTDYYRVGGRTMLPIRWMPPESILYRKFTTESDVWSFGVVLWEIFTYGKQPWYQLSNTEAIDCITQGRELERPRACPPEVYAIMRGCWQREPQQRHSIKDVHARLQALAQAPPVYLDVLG

B1: Src homology 2 domain containing transforming protein 1 (SHC1) (natural protein, UniProt P29353 1-583, looked up)
chain: MDLLPPKPKYNPLRNESLSSLEEGASGSTPPEELPSPSASSLGPILPPLPGDDSPTTLCSFFPRMSNLRLANPAGGRPGSKGEPGRAADDGEGIVGAAMPDSGPLPLLQDMNKLSGGGGRRTRVEGGQLGGEEWTRHGSFVNKPTRGWLHPNDKVMGPGVSYLVRYMGCVEVLQSMRALDFNTRTQVTREAISLVCEAVPGAKGATRRRKPCSRPLSSILGRSNLKFAGMPITLTVSTSSLNLMAADCKQIIANHHMQSISFASGGDPDTAEYVAYVAKDPVNQRACHILECPEGLAQDVISTIGQAFELRFKQYLRNPPKLVTPHDRMAGFDGSAWDEEEEEPPDHQYYNDFPGKEPPLGGVVDMRLREGAAPGAARPTAPNAQTPSHLGATLPVGQPVGGDPEVRKQMPPPPPCPGRELFDDPSYVNVQNLDKARQAVGGAGPPNPAINGSAPRDLFDMKPFEDALRVPPPPQSVSMAEQLRGEPWFHGKLSRREAEALLQLNGDFLVRESTTTPGQYVLTGLQSGQPKHLLLVDPEGVVRTKDHRFESVSHLISYHMDNHLPIISAGSELCLQQPVERKL
EC50 of NGF-K95A/Q96A added to U2OS-TrkA/p75-SHC1 cells for the interaction between TrkA and SHC1 (enzyme fragment complementation, chemiluminescence) [1]: 0.02 µg/mL | EC50 of NGF-R100E added to U2OS-TrkA/p75-SHC1 cells for the interaction between TrkA and SHC1 (enzyme fragment complementation, chemiluminescence) [1]: 0.00056 µg/mL | EC50 of NGF-W99A added to U2OS-TrkA/p75-SHC1 cells for the interaction between TrkA and SHC1 (enzyme fragment complementation, chemiluminescence) [1]: 0.023 µg/mL | EC50 of wild-type NGF added to U2OS-TrkA/p75-SHC1 cells for the interaction between TrkA and SHC1 (enzyme fragment complementation, chemiluminescence) [1]: 0.0042 µg/mL | plateau of the second activation phase at around 10 μg/ml NGF-K95A/Q96A in U2OS-TrkA/p75-SHC1 cells, relative to wild-type NGF (interaction between TrkA and SHC1, enzyme fragment complementation) [2]: ~300% | second activation phase EC50 of NGF-K95A/Q96A in U2OS-TrkA/p75-SHC1 cells (interaction between TrkA and SHC1, enzyme fragment complementation) [2]: ~3 µg/mL
